Molecular target: the molecule itself
Experiment: SEC; CDCs formed from a 2:1 mixture of MuA protein and Mu end DNA at 30°C for ≥1 hr; 25 mM HEPES pH 7.4, 200 mM NaCl, 5% glycerol, 0.6 mM Zwittergent 3-12, 0.5 mM EDTA, no Mg2+; Superdex 200 Increase 10/300; tetramer peak collected

B1: MuA transposase lacking domain Iα (residues 1–76) (enzyme)
chain: not shown
notes: MuA transposase of bacteriophage Mu; all constructs lacked domain Iα (residues 1-76); domain IIIβ (the C-terminal ~60 residues) is included; In the assay it stood with Mu end DNA fragments as the cleaved-donor complex (CDC); The crystal structure PDB 4FCY holds a shorter construct without domain IIIβ; also called MuA protein; WT
- stoichiometry N: 4

From article PMC5357137, “Target DNA bending by the Mu transpososome promotes careful transposition and prevents its reversal” (eLife, 2017)
